# T1: FLRT1 (in supernatants) (human, UniProt Q9NZU1 49-552)
# T1 sequence: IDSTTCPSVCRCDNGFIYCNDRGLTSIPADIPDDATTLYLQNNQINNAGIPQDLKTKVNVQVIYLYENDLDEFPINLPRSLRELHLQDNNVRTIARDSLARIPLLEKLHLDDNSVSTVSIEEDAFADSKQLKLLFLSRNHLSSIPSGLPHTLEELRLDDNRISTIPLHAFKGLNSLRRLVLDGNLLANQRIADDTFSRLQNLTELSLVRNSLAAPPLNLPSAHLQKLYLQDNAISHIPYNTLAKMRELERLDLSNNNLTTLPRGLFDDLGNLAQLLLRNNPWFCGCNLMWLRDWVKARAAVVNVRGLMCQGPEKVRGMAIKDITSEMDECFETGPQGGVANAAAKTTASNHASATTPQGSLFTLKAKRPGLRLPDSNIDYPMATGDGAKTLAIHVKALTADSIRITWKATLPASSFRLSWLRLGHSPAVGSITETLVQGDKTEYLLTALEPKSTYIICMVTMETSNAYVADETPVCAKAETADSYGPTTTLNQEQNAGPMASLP
# T2: FLRT2 (in supernatants) (human, UniProt O43155 36-541)
# T2 sequence: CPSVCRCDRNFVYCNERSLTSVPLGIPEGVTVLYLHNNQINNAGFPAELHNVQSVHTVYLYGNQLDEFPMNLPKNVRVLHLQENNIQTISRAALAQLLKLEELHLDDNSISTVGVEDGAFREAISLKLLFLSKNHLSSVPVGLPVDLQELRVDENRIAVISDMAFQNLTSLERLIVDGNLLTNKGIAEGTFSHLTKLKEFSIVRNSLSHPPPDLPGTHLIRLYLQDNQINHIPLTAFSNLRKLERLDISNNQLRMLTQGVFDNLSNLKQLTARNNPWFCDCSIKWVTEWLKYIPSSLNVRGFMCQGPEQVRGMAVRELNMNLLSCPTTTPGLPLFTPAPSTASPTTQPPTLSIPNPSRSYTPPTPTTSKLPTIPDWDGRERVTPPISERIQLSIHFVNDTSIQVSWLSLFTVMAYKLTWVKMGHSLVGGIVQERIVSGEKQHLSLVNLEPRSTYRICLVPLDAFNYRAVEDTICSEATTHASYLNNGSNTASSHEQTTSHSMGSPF
# What was measured:
# FLRT1 (in supernatants) = target: T1, FLRT1 (in supernatants); test: cell-based immunofluorescence validation (FIG. 17): receptor in supernatants, KCP on cells
# FLRT2 (in supernatants) = target: T2, FLRT2 (in supernatants); test: as above
binder,measurement,setting,value
"HHV8 protein KCP expressed on cells (gD-GPI construct or full-length protein) (other, also called HHV8 KCP) QDNEKCSQKTLIGYRLKMSRDGDIAVGETVELRCRSGYTTYARNITATCLQGGTWSEPTATCNKKSCPNPGEIQNGKVIFHGGQDALKYGANISYVCNEGYFLVGREYVRYCMIGASGQMAWSSSPPFCEKEKCHRPKIENGDFKPDKDYYEYNDAVHFECNEGYTLVGPHSIACAVNNTWTSNMPTCELAGCKFPSVTHGYPIQGFSLTYKHKQSVTFACNDGFVLRGSPTITCNVTEWDPPLPKCVLEDIDDPNNSNPGRLHPTPNEKPNGNVFQRSNYTEPPTKPEDTHTAATCDTNCEQPPKILPTSEGFNETTTSNTITKQLEDEKTTSQPNTHITSALTSMKAKGNFTNKTNNSTDLHIASTPTSQDDATPSIPSVQTPNYNTNAPTRTLTSLHIEEGPSNSTTSEKATASTLSHNSHKNDTGGIYTTLNKTTQLPSTNKPTNSQAKSSTKPRVETHNKTTSNPAISLTDSADVPQRPREPTLPPIFRPPASKNRYL",binding result,FLRT1 (in supernatants),binds
same,binding result,FLRT2 (in supernatants),binds

# Reference: patent publication US20240011017A1 (Genentech, published 2024)
